Consider one molecule from article PMC4936993, “Preparation of a functional fluorescent human Fas ligand extracellular domain derivative using a three-dimensional structure guided site-specific fluorochrome conjugation” (SpringerPlus, 2016).

This test concerns the target T1, FL-5Mal conjugated NFG1CG4-hFasLECD (human, UniProt P48023 139-281, N184Q | N250Q, Fluorescein-5-Maleimide conjugated to the unpaired cysteine in the N-terminal tag sequence (estimated 2.5 per trimer, approximately 83 % of the cysteines)).
T1 construct: linker of the N-terminal tag, between FLAG (DYKDDDDK) and residue 139 of hFasLECD; printed in three-letter code; its Cys is the conjugation site; human Fas ligand (CD178) extracellular domain with residues 103-138 deleted: hFasLECD (139-281, N184Q, N250Q); It calls the protein a trimer in words only; also called Fluorescein-5-Maleimide conjugated human Fas ligand extracellular domain derivative; …
T1 sequence: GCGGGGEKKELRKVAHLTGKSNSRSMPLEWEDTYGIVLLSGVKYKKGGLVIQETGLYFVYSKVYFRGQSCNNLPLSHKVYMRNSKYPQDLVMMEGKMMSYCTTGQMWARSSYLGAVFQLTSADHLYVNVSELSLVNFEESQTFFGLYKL
As to the kind of experiment: SEC; mixtures of hFasRECD-Fc and the conjugate in several amount ratios on Superdex 200 10/300 GL; 50 mM Tris-hydrochloride, 150 mM sodium chloride, pH 7.5; 0.5 ml/min; absorbance at 280 and 495 nm. As to conditions: both partners purified.

B1: human Fas receptor extracellular domain—human IgG1 Fc domain fusion protein (Fc fusion, UniProt P25445 26-173, looked up)
chain: QVTDINSKGLELRKTVTTVETQNLEGLHHDGQFCHKPCPPGERKARDCTVNGDEPDCVPCQEGKEYTDKAHFSSKCRRCRLCDEGHGLEVEINCTRTQNTKCRCKPNFFCNSTVCEHCDPCTKCEHGIIKECTLTSNTKCKEEGSRSN
notes: human Fas receptor (CD95) extracellular domain; also called hFasRECD-Fc; source: baculovirus—Bombyx mori larvae expression system, purified (Hi-Trap Protein G HP, Mono Q 10/10; main peak also by Superdex 200)
Turning to B1, the binding result was “binds”.
